# Measured values published in doi:10.1101/2022.12.02.518933.
# Molecular target: AF647-labeled cysteine-less BtuCD Q111C reconstituted into nanodiscs (E. coli) (UniProt P06609)
# Experiment: FRET or BRET
"k fast (double exponential, green emission on addition of BtuCD*) [s⁻¹]","k slow (double exponential, green emission on addition of BtuCD*) [s⁻¹]","k fast (double exponential, with AMPPNP) [s⁻¹]",k fast (double exponential; initial single-lobe association) [s⁻¹],"k slow (double exponential, with AMPPNP) [s⁻¹]",k slow (double exponential; locking) [s⁻¹],Binder
0.124,0.016,,,,,"AF546-labeled BtuF harboring the E202A mutation (natural protein, Alexa Fluor 546 C5 maleimide on the cysteine appended to the C-terminus) APRVITLSPANTELAFAAGITPVGVSSYSDYPPQAQKIEQVSTWQGMNLERIVALKPDLVIAWRGGNAERQVDQLASLGIKVMWVDATSIEQIANALRQLAPWSPQPDKAEQAAQSLLDQYAQLKAQYADKPKKRVFLQFGINPPFTSGKESIQNQVLEVCGGENIFKDSRVPWPQVSRAQVLARSPQAIVITGGPDQIPKIKQYWGEQLKIPVIPLTSDWFERASPRIILAAQQLCNALSQVD"
,,0.108,0.158,0.009,0.025,"AlexaFluor 546 (AF546)-labeled E. coli BtuF (natural protein, Alexa Fluor 546 C5 maleimide on the cysteine appended to the C-terminus) APRVITLSPANTELAFAAGITPVGVSSYSDYPPQAQKIEQVSTWQGMNLERIVALKPDLVIAWRGGNAERQVDQLASLGIKVMWVDATSIEQIANALRQLAPWSPQPDKAEQAAQSLLDQYAQLKAQYADKPKKRVFLQFGINPPFTSGKESIQNQVLEVCGGENIFKDSRVPWPQVSREQVLARSPQAIVITGGPDQIPKIKQYWGEQLKIPVIPLTSDWFERASPRIILAAQQLCNALSQVD"
